Assay results taken from patent US20060239990A1, “Protein Arginine N-Methyltransferase 2 (PRMT-2)” (priority 2003, published 2006).

How the values were obtained:
[1] = target: T1, RB (Homo sapiens, UniProt P06400); assay: In vitro binding assay with GST-RB; settings: S35-labeled in vitro translated protein
T1 construct: coding region of RB cDNA was subcloned into pGEX-6P (Amersham/Pharmacia) for generation of GST-RB; made in house
T1 sequence (P06400 1-928): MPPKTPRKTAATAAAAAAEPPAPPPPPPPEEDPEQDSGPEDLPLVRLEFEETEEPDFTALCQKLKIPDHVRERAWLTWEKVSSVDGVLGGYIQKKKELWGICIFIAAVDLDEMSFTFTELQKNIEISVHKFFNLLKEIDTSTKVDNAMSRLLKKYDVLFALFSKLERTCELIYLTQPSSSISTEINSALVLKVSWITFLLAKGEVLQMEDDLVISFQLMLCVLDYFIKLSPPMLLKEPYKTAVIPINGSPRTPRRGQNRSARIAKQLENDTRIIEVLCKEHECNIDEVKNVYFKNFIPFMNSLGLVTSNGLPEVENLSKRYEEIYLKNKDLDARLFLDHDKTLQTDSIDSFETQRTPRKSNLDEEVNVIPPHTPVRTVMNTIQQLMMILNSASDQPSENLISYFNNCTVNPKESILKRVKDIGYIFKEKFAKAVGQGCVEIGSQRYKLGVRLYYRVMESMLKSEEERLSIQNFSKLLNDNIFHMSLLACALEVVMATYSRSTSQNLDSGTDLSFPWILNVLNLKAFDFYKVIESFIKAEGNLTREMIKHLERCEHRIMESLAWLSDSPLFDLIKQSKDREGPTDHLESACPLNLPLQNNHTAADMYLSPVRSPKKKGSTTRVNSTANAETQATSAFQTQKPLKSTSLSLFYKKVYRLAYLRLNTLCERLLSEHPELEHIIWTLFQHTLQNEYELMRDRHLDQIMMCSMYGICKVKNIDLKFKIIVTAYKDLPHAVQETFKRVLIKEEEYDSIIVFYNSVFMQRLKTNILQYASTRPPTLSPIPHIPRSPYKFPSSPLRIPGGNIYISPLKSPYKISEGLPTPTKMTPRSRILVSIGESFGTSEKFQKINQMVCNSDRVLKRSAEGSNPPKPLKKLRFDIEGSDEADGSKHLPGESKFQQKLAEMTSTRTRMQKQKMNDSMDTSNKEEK
Protocol: The crude cell lysate of the GST-fusion proteins was prepared and purified according to the manufacture's protocol (Amersham/Pharmacia). [^35S]-methionine-labeled protein was produced by in vitro transcription/translation using the TNT T7-coupled reticulocyte lysate system (Promega). [^35S]-methionine-labeled protein and GST-fusion protein bound to glutathione sepharose 4B beads were incubated in 500 μl of HNE buffer (50 mM Hepes, pH 7.8, 150 mM NaCl, 1 mM EDTA, 1 mM DTT, 1% NP40, and 1× protease inhibitor mix (Complete: Roche)) at 4° C. for 1 hour. Beads were washed four times with HNE buffer, and then analyzed on an SDS-PAGE gradient gel (4-15%). For the detection of endogenous PRMT-2 interaction with RB, MEFs were lysed with WCL buffer (50 mM Hepes, pH 7.8, 400 mM NaCl, 2 mM EDTA, 1 mM DTT, 0.2% NP40, 10% Glycerol, 20 mM α-glycerophosphate, 5 mM NaF, 0.1 mM NaVO4, and 1× protease inhibitor mix). Then, 1 mg of whole cell extracts were incubated with HNE buffer without DTT and 3 μg of antibodies as indicated. The immune complexes were isolated using protein G beads, and washed four times with HNE buffer. The precipitated protein was boiled with SDS-loading buffer and resolved on SDS-PAGE. For immunoprecipitation of HA-tagged protein, transfected cells were lysed with RIPA buffer (phosphate buffer saline containing 1% NP40, 0.5% sodium deoxycholate, 0.1% SDS, and 1× Complete), and 100 μg of whole cell lysates were immunoprecipitated with anti-HA antibodies and washed in RIPA buffer. Western blot analysis was performed as described in Tanner et al. (1998). Circ Res, 82, 396-403.
To test whether PRMT family members interact with RB, S^35-labeled in vitro translated PRMT1, PRMT2, PRMT3, and PRMT4 (CARM1) were incubated with GST-RB fusion proteins or control GST, and co-precipitated labeled proteins were resolved by SDS-PAGE. […] An equal amount of GST-RB and GST were loaded in each lane, verified by Coomassie staining (FIG. 8B).

[2] = system: NF-κB; assay: NF-κB luciferase reporter assay in 293T cells; format: cell-based, human; settings: 1 μg expression construct, 100 ng 5 κB luciferase reporter
Protocol: Cell culture, transfection, and reporter gene assays. The E1A-transformed, human kidney cell line, 293, and NIH-3T3 cells were maintained in Dulbecco's Modified Eagle Medium (DMEM) supplemented with 10% fetal calf serum and penicillin-streptomycin at 37° C. in 5% carbon dioxide in tissue culture grade Petri dishes. PRMT-2−/− mouse embryo fibroblasts (MEFs) and wild type MEFs were prepared from day 13.5 embryos and maintained in DMEM supplemented with 10% fetal calf serum. MEFs at passage 4 were used in this experiment. Lipofectamine Plus™ reagent (Boehringer Mannheim) was used to transfect both 293 and NIH-3T3 cells according to directions from the manufacturer. […] TNF-α stimulation of cells was done using recombinant TNF-α (200 U/ml) for 12 hours. […] CAT assays were performed essentially as described in Leung, K. & Nabel, G. J. Nature 333, 776-778 (1988). To analyze the κB-reporter activity in MEFs, cells were transfected with the reporter (2×kB-Luc) and PRL-TK vector (Promega) using FuGENE6 transfection reagent (Roche). Luciferase activity was analyzed by Dual-Luciferase Reporter Assay System (Promega).
To map the domains responsible for inhibition of HIV transcription, truncation and point mutations were made in PRMT2 (FIG. 1D) and co-transfected with an NF-κB reporter in 293T cells. PRMT2-A represents an alternatively spliced form of PRMT2 found in the expressed sequence tag (EST) database. This isoform contains the first 218 amino acids of PRMT2 and differs from full length PRMT2 by the absence of the less conserved COOH-terminal domain. PRMT2-N was generated by introducing a stop codon after amino acid 95 before the putative Ado-Met domain of PRMT2. To analyze the role of the Ado-Met domain further, another mutant, PRMT2-4A, was prepared in which 141ILDV144 (SEQ ID NO:5) in this region were altered to four consecutive alanines to compare the effects of point mutations in this highly conserved region.
The mechanism and site of action of PRMT2 in the NF-κB signaling pathway was further defined by co-transfection of PRMT2 and its mutants with different regulators in this pathway with an NF-κB reporter in 293T cells (FIG. 2D).

[3] = system: HIV-1 LTR; assay: HIV-1 reporter transcription, transient co-transfection; format: cell-based, human; settings: 293T cells, co-transfection
Protocol: Cell culture, transfection, and reporter gene assays. The E1A-transformed, human kidney cell line, 293, and NIH-3T3 cells were maintained in Dulbecco's Modified Eagle Medium (DMEM) supplemented with 10% fetal calf serum and penicillin-streptomycin at 37° C. in 5% carbon dioxide in tissue culture grade Petri dishes. PRMT-2−/− mouse embryo fibroblasts (MEFs) and wild type MEFs were prepared from day 13.5 embryos and maintained in DMEM supplemented with 10% fetal calf serum. MEFs at passage 4 were used in this experiment. Lipofectamine Plus™ reagent (Boehringer Mannheim) was used to transfect both 293 and NIH-3T3 cells according to directions from the manufacturer. […] TNF-α stimulation of cells was done using recombinant TNF-α (200 U/ml) for 12 hours. Transfected cells were harvested at 36 hours, and CAT activity was assayed on 10 to 100 μg of protein from whole cell extracts. CAT assays were performed essentially as described in Leung, K. & Nabel, G. J. Nature 333, 776-778 (1988). To analyze the κB-reporter activity in MEFs, cells were transfected with the reporter (2×kB-Luc) and PRL-TK vector (Promega) using FuGENE6 transfection reagent (Roche). Luciferase activity was analyzed by Dual-Luciferase Reporter Assay System (Promega).
To determine whether PRMT-1, 2 or 3 could affect NF-κB function, their potential to regulate effects on transcription of the human immunodeficiency virus type 1 (HIV-1) was examined. Transient co-transfections were performed using PRMT1, PRMT2 and PRMT3 expression plasmids with an HIV-1 reporter plasmid in the human renal epithelial cell line, 293T.
To determine its dependence on NF-κB, human immunodeficiency virus type 1 (HIV-1) reporter plasmids with wild-type (WT) or mutant (ΔκB) sites were co-transfected transiently with control or PRMT2 expression plasmids in the different cell lines. […] The KB effect was dose-dependent and was also observed with other inducers of NF-κB, including phorbol […] (PMA) (FIG. 2B, right panel).

B1: PRMT2(1-95): deletion mutant lacking the C-terminal and AdoMet binding domains, retains the SH3 domain (protein)
chain: MATSGDCPRSESQGEEPAECSEAGLLQEGVQPEEFVAIADYAATDETQLSFLRGEKILILRQTTADWWWGERAGCCGYIPANHVGKHVDEYDPED
Question: How did the “binding to RB” value [1] turn out when B1 was run?
Answer: The value was “did not bind GST-RB”.

B2: PRMT2-4A: amino acids 141-144 (ILDV) in the Ado-Met domain altered to four consecutive alanines, SEQ ID NO:6 (protein)
chain: MATSGDCPRSESQGEEPAECSEAGLLQEGVQPEEFVAIADYAATDETQLSFLRGEKILILRQTTADWWWGERAGCCGYIPANHVGKHVDEYDPEDTWQDEEYFGSYGTLKLHLEMLADQPRTTKYHSVILQNKESLTDKVAAAAGCGTGIISLFCAHYARPRAVYAVEASEMAQHTGQLVLQNGFADIITVYQQKVEDVVLPEKVDVLVSEWMGTCLLFEFMIESILYARDAWLKEDGVIWPTMAALHLVPCSADKDYRSKVLFWDNAYEFNLSALKSLAVKEFFSKPKYNHILKPEDCLSEPCTILQLDMRTVQISDLETLRGELRFDIRKAGTLHGFTAWFSVHFQSLQEGQPPQVLSTGPFHPTTHWKQTLFMMDDPVPVHTGDVVTGSVVLQRNPVWRRHMSVALSWAVTSRQDPTSQKVGEKVFPIWR
modifications: A synthetic PRMT-2-4A mutant polypeptide
Question: Which NF-κB activity [2] does the source give for B2 here?
Answer: Its NF-κB activity is “inhibited NF-κB activity”.

B3: PRMT3: human protein arginine methyltransferase 3, expression construct (protein)
chain: CSLASGATGGRGAVENEEDLPELSDSGDEAAWEDEDDADLPHGKQQTPCLFCNRLFTSAEETFSHCKSEHQFNIDSMVHKHGLEFYGYIKLINFIRLKNPTVEYMNSIYNPVPWEKEEYLKPVLEDDLLLQFDVEDLYEPVSVPFSYPNGLSENTSVVEKLKHMEARALSAEAALARAREDLQKMKQFAQDFVMHTDVRTCSSSTSVIADLQEDEDGVYFSSYGHYGIHEEMLKDKIRTESYRDFIYQNPHIFKDKVVLDVGCGTGILSMFAAKAGAKKVLGVDQSEILYQAMDIIRLNKLEDTITLIKGKIEEVHLPVEKVDVIISEWMGYFLLFESMLDSVLYAKNKYLAKGGSVYPDICTISLVAVSDVNKHADRIAFWDDVYGFKMSCMKKAVIPEAVVEVLDPKTLISEPCGIKHIDCHTTSISDLEFSSDFTLKITRTSMCTAIAGYFDIYFEKNCHNRVVFSTGPQSTKTHWKQTVFLLEKPFSVKAGEALKGKVTVHKNKKDPRSLTVTLTLNNSTQTYGLQ
Question: Which “binding to RB” value [1] does the source give for B3 here?
Answer: The value was “do not bind RB”.

Question: What about the “effect on transcription of the HIV-1 reporter plasmid” value [3] of the same molecule?
Answer: Its value is “did not affect transcription”.

B4: PRMT2(1-218): deletion mutant lacking the C-terminal domain, retains SH3 domain and a large part of the AdoMet binding domain (protein)
chain: MATSGDCPRSESQGEEPAECSEAGLLQEGVQPEEFVAIADYAATDETQLSFLRGEKILILRQTTADWWWGERAGCCGYIPANHVGKHVDEYDPEDTWQDEEYFGSYGTLKLHLEMLADQPRTTKYHSVILQNKESLTDKVILDVGCGTGIISLFCAHYARPRAVYAVEASEMAQHTGQLVLQNGFADIITVYQQKVEDVVLPEKVDVLVSEWMGTCLL
Question: B4 was tested. Which “binding to RB” value [1] did it give?
Answer: Its value is “bound GST-RB at levels comparable to that of wild type PRMT2”.
